Assay results taken from paper PMC2148133.

Molecular target: Xklp2 (Xenopus kinesin-like protein 2), endogenous full-length protein (Xenopus (endogenous in Xenopus egg extract)) (UniProt Q91785)
Test: SEC + other: sucrose gradient centrifugation

Xklp2 (Xenopus kinesin-like protein 2), endogenous full-length protein (from UniProt Q91785 1-1388) (natural protein)
stoichiometry N: 2
